Measurements: the Human Domainome abundance scans (Beltran et al. 2025)

B1: Syntaxin-binding protein 4, residues 493 to 538; numbered along this chain, Q6ZWJ1 (parent)
chain: LDMDCLPYGWEEAYTADGIKYFINHVTQTTSWIHPVMSVLNLSRSE
B2: KAT8 regulatory NSL complex subunit 2, residues 28 to 91; numbered along this chain, Q9H9L4 (parent)
chain: CAFTHRPCSHPRLEGQEFCIKHILEDKNAPFKQCSYISTKNGKRCPNAAPKPEKKDGVSFCAEH

Variants of: B1
Assay: abundance fitness (aPCA) (normalised: wild type 0, dead -1); higher = more abundant; growth selection in yeast, the domain comes from the species named
Conditions: Homo sapiens

Abundance fitness, by site and new letter:
R44: T -0.285, M -0.292, V -0.147, N -0.104, S 0.096, F -0.881, H -0.287, D 0.169, G 0.377, E 0.376, W -0.527, Y -0.109, Q -0.063, A -0.134, L -0.512, I -1.3, C 0.016, P 0.041, K -0.162
L42: Y -0.876, W -0.292
S43: T -0.183, Y -0.876, A -0.526, R -0.17, K -0.846, I -0.606, M -0.75, D 0.129, P -0.064, C -0.518, E 0.119, F -0.531, Q -0.732, V -0.44, W -1, L -0.698, H -0.021, N 0.116
E46: N -0.139, V -0.365, D -0.243, Q 0.008, L -0.668, S -0.582, C 0.486, G 0.23, T -0.143, K -0.478, R -0.132, F -0.308, A -0.517
S45: V -0.103, T -0.089, Q -0.32, M -0.986, R -0.173, H -0.438, A -0.186, W -0.914, E 0.092, F -0.759, Y -0.287, P -0.127, D -0.06, K -0.169, L -0.509

Variants of: B2
Assay: as above
Conditions: Homo sapiens

Abundance fitness of substitutions, site by site:
R12: V -0.066, W -1.22, L -0.27, D -0.93, G -0.652, Q -0.561, Y -0.787, I -0.234, P -0.147, A -0.055, S -0.106, T -0.103, M -0.47, H -0.308, F -0.77, K -0.325, E -0.674, N -0.279
C1: N -0.615, K -0.155, L -0.886, W -0.837, I -0.287, D -0.896, A -0.343, V -0.865, S -0.358, T -0.89, R -0.545, G -0.604, M -0.576, Y -0.802, E -0.322
E14: I -0.219, H -0.262, W -0.396, F -0.252, C -0.168, Q -0.155, T -0.129, D -0.152, S -0.147, R -0.258, A -0.107, P -0.141, L -0.12, V -0.098, M -0.034, N -0.334
F3: G -0.154, I 0.033, M -0.172, H -0.026, C -0.14, P -0.639, L -0.332, T -0.083, R -0.174, N -0.312, A -0.318, K -0.287, Y -0.151, W -0.161, Q -0.28, E -0.285, D -0.255
R6: S -0.055, V -0.081, A -0.167, N -0.133, T -0.088, K -0.032, C -0.032, Q -0.072, Y -0.06, F -0.016, P -0.047, I -0.034, W -0.118, G -0.068
A2: P -0.421, K -0.153, S -0.238, D -0.388, H -0.231, L -0.152, C -0.08, Q -0.186, M -0.014, G -0.101, T -0.103, W -0.541, I -0.198, F -0.513, E -0.522, V -0.235, R -0.138, N 0.023
L13: K -0.24, T -0.308, I -0.145, W -0.315, V -0.127, G -0.423, H -0.215, C -0.365, D -0.501, M -0.048, N -0.53, Q -0.176, A -0.187, S -0.331, Y -0.277, E -0.334, F -0.324, P -0.86, R -0.465
C8: F -1.45, Q -0.832, L -1.31, W -1.24, G -0.742, P -0.874, V -0.949, D -0.646, E -0.711, K -0.664, Y -1.07, I -0.847, H -0.854, A -0.883, N -0.641, S -0.891, M -0.937, R -1.02
H10: S -0.042, M -0.047, D -0.28, Y -0.041, W -0.127, C -0.015, L -0.103, T -0.11, G -0.01, E -0.038, R -0.064, Q -0.078, P -1.12, V -0.149, I -0.013, K -0.113, A -0.126, F -0.076
G15: C -0.403, A -0.284, T -0.428, F -0.406, E -0.219, D -0.127, H -0.263, Q -0.134, M -0.199, Y -0.706, V -0.972, W -0.592, N -0.134, P -0.543, R -0.228
Q16: E -0.261, P -1.11, L -0.054, N -0.25, V -0.38, I -0.497, S -0.091, D -0.408, R -0.089, C -0.198, K -0.143, T -0.15, M -0.146
T4: K -0.378, H -0.128, E -0.305, N -0.201, D -0.163, L -0.53, R -0.399, G -0.394, Y -0.15, A -0.404, P -0.512, V -0.468, W -0.388, M -0.788, Q -0.494, F -0.181, C -0.102, S -0.193, I -0.114
H5: C -0.112, L -0.068, R -0.01, S -0.144, N -0.212, M -0.012, W -0.193, K -0.083, V -0.023, I -0.084, P -0.146, Y -0.151, T 0.034, A -0.068, G -0.017, F -0.096, E 0.017, Q 0.011
S9: G -0.13, D -0.121, I 0.016, E -0.191, K -0.343, P -0.174, Q -0.115, L -0.113, R -0.186, H -0.119, T -0.193, F 0.008, V -0.065, M -0.135, C -0.123, N -0.313
P11: N -0.282, G -0.133, H -0.234, C -0.296, I -0.298, R -0.092, A -0.032, E -0.004, M -0.092, W -0.555, K -0.067, L -0.18, V -0.197, D -0.068, S -0.162
P7: E -0.063, G -0.063, F -0.121, C -0.201, R -0.003, Q -0.072, V -0.1, L -0.101, H -0.133, A -0.061, W -0.148, M -0.05, N -0.204, Y -0.149, I -0.096, K -0.123, S -0.14, D 0.003
